From publication PMC4600597

Tested on: C[C@H](CCC[C@@H](C)[C@H]1CC[C@H]2[C@@H]3CCC4=CC(=O)CC[C@]4(C)[C@H]3CC[C@]12C)C(=O)SCCNC(=O)CCNC(=O)[C@H](O)C(C)(C)COP(=O)(O)OP(=O)(O)OC[C@H]1O[C@@H](n2cnc3c(N)ncnc32)[C@H](O)[C@@H]1OP(=O)(O)O
Test: purified protein
Settings: pH 8.5; 25.0 °C

In the case of “MCR (Rv1143) (Mycobacterium tuberculosis H37Rv)”, the Km is reported as 6.5 ± 1.4 µM.
